B1: Pistol ribozyme (parent)
chain: GGGUCGUUGUUCCAUAAUCGCGUGGAUAUGGCACGCAAGUUUCUACCGGGCACCGUAAAUGUCCGACUGGAGCCGUUCGGGCGGCUAUAAACAGACCUCAGGCCCGAAGCGUGGCGGCACCUGCCGCCGGUGGUAAAAAAGAUCGGAAGAGCACACGUCU

Variants of: B1
Experiment: aptazyme ON/OFF ratio, guanine; higher = stronger switching; co-transcriptional cleavage with and without guanine

Row | Variant | aptazyme ON/OFF ratio
1 | GGGUCGCCCUAAGAUAAUCGCGUGGAUAUGGCACGCAAGUUUCUACCGGGCACCGUAAAUGUCCGACUGGAGCCGUUCGGGCGGCUAUAAACAGACCUCAGGCCCGAAGCGUGGCGGCACCUGCCGCCGGUGGUAAAAAAGAUCGGAAGAGCACACGUCU [U7C U8C G9C U11A C12A C13G] | 1.14
2 | GGGUCGCCCGGCGAUAAUCGCGUGGAUAUGGCACGCAAGUUUCUACCGGGCACCGUAAAUGUCCGACUGGAGCCGUUCGGGCGGCUAUAAACAGACCUCAGGCCCGAAGCGUGGCGGCACCUGCCGCCGGUGGUAAAAAAGAUCGGAAGAGCACACGUCU [U7C U8C G9C U10G U11G C13G] | 1.08
3 | GGGUCGCCCGGCAAUAAUCGCGUGGAUAUGGCACGCAAGUUUCUACCGGGCACCGUAAAUGUCCGACUGGAGCCGUUCGGGCGGCUAUAAACAGACCUCAGGCCCGAAGCGUGGCGGCACCUGCCGCCGGUGGUAAAAAAGAUCGGAAGAGCACACGUCU [U7C U8C G9C U10G U11G C13A] | 1.06
4 | GGGUCGCCCGGCUAUAAUCGCGUGGAUAUGGCACGCAAGUUUCUACCGGGCACCGUAAAUGUCCGACUGGAGCCGUUCGGGCGGCUAUAAACAGACCUCAGGCCCGAAGCGUGGCGGCACCUGCCGCCGGUGGUAAAAAAGAUCGGAAGAGCACACGUCU [U7C U8C G9C U10G U11G C13U] | 1.1
5 | GGGUCGCCCUACCAUAAUCGCGUGGAUAUGGCACGCAAGUUUCUACCGGGCACCGUAAAUGUCCGACUGGAGCCGUUCGGGCGGCUAUAAACAGACCUCAGGCCCGAAGCGUGGCGGCACCUGCCGCCGGUGGUAAAAAAGAUCGGAAGAGCACACGUCU [U7C U8C G9C U11A] | 1.71
6 | GGGUCGCCCUCCCAUAAUCGCGUGGAUAUGGCACGCAAGUUUCUACCGGGCACCGUAAAUGUCCGACUGGAGCCGUUCGGGCGGCUAUAAACAGACCUCAGGCCCGAAGCGUGGCGGCACCUGCCGCCGGUGGUAAAAAAGAUCGGAAGAGCACACGUCU [U7C U8C G9C U11C] | 1.43
7 | GGGUCGCCCUACAAUAAUCGCGUGGAUAUGGCACGCAAGUUUCUACCGGGCACCGUAAAUGUCCGACUGGAGCCGUUCGGGCGGCUAUAAACAGACCUCAGGCCCGAAGCGUGGCGGCACCUGCCGCCGGUGGUAAAAAAGAUCGGAAGAGCACACGUCU [U7C U8C G9C U11A C13A] | 1.13
8 | GGGUCGCCCUACGAUAAUCGCGUGGAUAUGGCACGCAAGUUUCUACCGGGCACCGUAAAUGUCCGACUGGAGCCGUUCGGGCGGCUAUAAACAGACCUCAGGCCCGAAGCGUGGCGGCACCUGCCGCCGGUGGUAAAAAAGAUCGGAAGAGCACACGUCU [U7C U8C G9C U11A C13G] | 1.09
9 | GGGUCGCCCUACUAUAAUCGCGUGGAUAUGGCACGCAAGUUUCUACCGGGCACCGUAAAUGUCCGACUGGAGCCGUUCGGGCGGCUAUAAACAGACCUCAGGCCCGAAGCGUGGCGGCACCUGCCGCCGGUGGUAAAAAAGAUCGGAAGAGCACACGUCU [U7C U8C G9C U11A C13U] | 1.08
10 | GGGUCGCCCGGGGAUAAUCGCGUGGAUAUGGCACGCAAGUUUCUACCGGGCACCGUAAAUGUCCGACUGGAGCCGUUCGGGCGGCUAUAAACAGACCUCAGGCCCGAAGCGUGGCGGCACCUGCCGCCGGUGGUAAAAAAGAUCGGAAGAGCACACGUCU [U7C U8C G9C U10G U11G C12G C13G] | 1.09
11 | GGGUCGCCCGGGUAUAAUCGCGUGGAUAUGGCACGCAAGUUUCUACCGGGCACCGUAAAUGUCCGACUGGAGCCGUUCGGGCGGCUAUAAACAGACCUCAGGCCCGAAGCGUGGCGGCACCUGCCGCCGGUGGUAAAAAAGAUCGGAAGAGCACACGUCU [U7C U8C G9C U10G U11G C12G C13U] | 1.05
12 | GGGUCGCCCGGUAAUAAUCGCGUGGAUAUGGCACGCAAGUUUCUACCGGGCACCGUAAAUGUCCGACUGGAGCCGUUCGGGCGGCUAUAAACAGACCUCAGGCCCGAAGCGUGGCGGCACCUGCCGCCGGUGGUAAAAAAGAUCGGAAGAGCACACGUCU [U7C U8C G9C U10G U11G C12U C13A] | 1.08
13 | GGGUCGCCCGGUGAUAAUCGCGUGGAUAUGGCACGCAAGUUUCUACCGGGCACCGUAAAUGUCCGACUGGAGCCGUUCGGGCGGCUAUAAACAGACCUCAGGCCCGAAGCGUGGCGGCACCUGCCGCCGGUGGUAAAAAAGAUCGGAAGAGCACACGUCU [U7C U8C G9C U10G U11G C12U C13G] | 1.09
14 | GGGUCGCCCGGUUAUAAUCGCGUGGAUAUGGCACGCAAGUUUCUACCGGGCACCGUAAAUGUCCGACUGGAGCCGUUCGGGCGGCUAUAAACAGACCUCAGGCCCGAAGCGUGGCGGCACCUGCCGCCGGUGGUAAAAAAGAUCGGAAGAGCACACGUCU [U7C U8C G9C U10G U11G C12U C13U] | 1.06
15 | GGGUCGCCCUCGUAUAAUCGCGUGGAUAUGGCACGCAAGUUUCUACCGGGCACCGUAAAUGUCCGACUGGAGCCGUUCGGGCGGCUAUAAACAGACCUCAGGCCCGAAGCGUGGCGGCACCUGCCGCCGGUGGUAAAAAAGAUCGGAAGAGCACACGUCU [U7C U8C G9C U11C C12G C13U] | 1.01
16 | GGGUCGCCCUCGGAUAAUCGCGUGGAUAUGGCACGCAAGUUUCUACCGGGCACCGUAAAUGUCCGACUGGAGCCGUUCGGGCGGCUAUAAACAGACCUCAGGCCCGAAGCGUGGCGGCACCUGCCGCCGGUGGUAAAAAAGAUCGGAAGAGCACACGUCU [U7C U8C G9C U11C C12G C13G] | 1.2
17 | GGGUCGCCCUCGAAUAAUCGCGUGGAUAUGGCACGCAAGUUUCUACCGGGCACCGUAAAUGUCCGACUGGAGCCGUUCGGGCGGCUAUAAACAGACCUCAGGCCCGAAGCGUGGCGGCACCUGCCGCCGGUGGUAAAAAAGAUCGGAAGAGCACACGUCU [U7C U8C G9C U11C C12G C13A] | 1.09
18 | GGGUCGCCCUCUAAUAAUCGCGUGGAUAUGGCACGCAAGUUUCUACCGGGCACCGUAAAUGUCCGACUGGAGCCGUUCGGGCGGCUAUAAACAGACCUCAGGCCCGAAGCGUGGCGGCACCUGCCGCCGGUGGUAAAAAAGAUCGGAAGAGCACACGUCU [U7C U8C G9C U11C C12U C13A] | 1.05
